The values below come from patent US20020054882A1 (TAKARA SHUZO, published 2002).

Assay in all cases: cell-based or functional assay
Assay [1] addresses HA molecule of A/Adachi/2/57 (H2N2) (influenza A virus A/Adachi/2/57 (H2N2)).
Assay [2] has as its target HA molecule of A/Bangkok/10/83 (H1N1) (influenza A virus A/Bangkok/10/83 (H1N1)).
Assay [3] deals with HA molecule of A/Fukuoka/C29/85 (H3N2) (influenza A virus A/Fukuoka/C29/85 (H3N2)).
Assay [4] deals with HA molecule of A/Ibaraki/1/90 (H3N2) (influenza A virus A/Ibaraki/1/90 (H3N2)).
For assay [5], the target named is HA molecule of A/Izumi/5/65 (H2N2) (influenza A virus A/Izumi/5/65 (H2N2)).
Assay [6] deals with HA molecule of A/Kaizuka/2/65 (H2N2) (influenza A virus A/Kaizuka/2/65 (H2N2)).
Assay [7] addresses HA molecule of A/Kitakyushu/159/93 (H3N2) (influenza A virus A/Kitakyushu/159/93 (H3N2)).
For assay [8], the target named is HA molecule of A/Kumamoto/1/65 (H2N2) (influenza A virus A/Kumamoto/1/65 (H2N2)).
For assay [9], the target named is HA molecule of A/Osaka/930/88 (H1N1) (influenza A virus A/Osaka/930/88 (H1N1)).
Assay [10] addresses HA molecule of A/Sichuan/2/87 (H3N2) (influenza A virus A/Sichuan/2/87 (H3N2)).
The target in assay [11] is HA molecule of A/Suita/1/90 (H3N2) (influenza A virus A/Suita/1/90 (H3N2)).
In assay [12] the target is HA molecule of A/Yamagata/120/86 (H1N1) (influenza A virus A/Yamagata/120/86 (H1N1)).
Assay [13] deals with HA molecule of A1/FM/1/47 (H1N1) (influenza A virus A1/FM/1/47 (H1N1)).
The target in assay [14] is HA molecule of A2/Aichi/2/68 (H3N2) (influenza A virus A2/Aichi/2/68 (H3N2)).
The target of assay [15] is HA molecule of influenza B virus strain B/Nagasaki/1/87 (influenza B virus B/Nagasaki/1/87).
Assay [16] concerns the target HA molecule of A/PR/8/34 (H1N1) (influenza A virus A/PR/8/34 (H1N1), UniProt P03452 18-565).

HA molecule of A/PR/8/34 (H1N1), sequence (P03452 18-565): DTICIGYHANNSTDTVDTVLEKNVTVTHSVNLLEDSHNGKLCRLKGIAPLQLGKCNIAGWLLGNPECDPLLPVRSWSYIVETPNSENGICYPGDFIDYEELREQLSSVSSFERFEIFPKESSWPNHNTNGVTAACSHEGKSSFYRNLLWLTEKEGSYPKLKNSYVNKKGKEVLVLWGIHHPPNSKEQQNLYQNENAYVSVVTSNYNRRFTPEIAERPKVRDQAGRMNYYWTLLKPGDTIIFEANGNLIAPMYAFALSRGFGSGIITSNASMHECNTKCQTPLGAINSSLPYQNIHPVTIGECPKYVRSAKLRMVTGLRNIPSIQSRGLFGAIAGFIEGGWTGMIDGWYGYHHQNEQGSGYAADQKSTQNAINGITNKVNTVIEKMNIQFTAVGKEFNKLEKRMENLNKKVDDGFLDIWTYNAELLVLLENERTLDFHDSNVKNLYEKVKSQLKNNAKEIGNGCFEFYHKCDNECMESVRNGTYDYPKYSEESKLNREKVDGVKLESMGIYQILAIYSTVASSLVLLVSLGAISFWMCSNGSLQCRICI

On to monoclonal antibody C179, for which the HI (hemagglutination inhibition test) (dilution ratio of ascites fluid) in [1], in assay [2], in assay [3], in assay [4], in assay [5] and in assay [6] was under 32 throughout. Further, the HI (hemagglutination inhibition test) (dilution ratio of ascites fluid) in assay [7], in [8], in assay [9], in [10], in assay [11] and in assay [12] was under 32 each time. For the same molecule, the HI (hemagglutination inhibition test) (dilution ratio of ascites fluid) in assay [13], in assay [14] and in assay [15] was under 32 in each case.

B1: monoclonal antibody C179 (antibody)
chain 1: EVKLVESGGGLVQPGGSLRLSCGTSGFTLTDDYMTWVRQPPGKALEWLGFIRDRANGYTTEYSASVKGRFTISRDNSQSIVYLQMNTLRVEDSATYYCARPKGYFPYAMDYWGQGT
chain 2: DIQMTQSPASQSASLGESVTITCLASQTIGTWLAWYQQKPGKSPQLLIYAATSLADGVPSRFSGSGSGTKFSFKISSLQAEDFVSYYCQQLYSTPW
On to B1, for which, in assay [16], the “HI (hemagglutination inhibition test)” value is < 32 dilution ratio of ascites fluid.
